± gives the standard deviation of the averaged measurements.
System: ATP
Experiment: switch fluorescence ratio, 500 uM ATP over buffer (Cy3 cluster intensity, sum of 5 cycles each) (fold (ratio)); higher = stronger signal-on switching upon ATP binding; sequences stand for … in TCGTCGGCAGCGTCAGATGTGTATAAGAGACAGTTTTTTTTTTTTTTTTTTTTTTTTT…TC
Conditions: aptamer strand: ATP DNA aptamer (quencher-CACCTGGGGGAGTATTGCGGAGGAAGG + anchor), 100 nM annealed; ATP concentration: 500 uM
In short: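 Cy3-labelled switching-strand clusters on a modified Illumina MiSeq flow-cell were annealed to 100 nM quencher-labelled ATP aptamer, imaged in selection buffer, then imaged after 15 min with 500 uM ATP at 22 °C. Five buffer/ATP cycles ran, with NaOH stripping and re-annealing between them. The fluorescence ratio is summed target-cycle over summed buffer-cycle Cy3 intensity per cluster, averaged per switch-domain sequence. Clusters outside 100-1000 RFU were excluded.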
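Note: ATP exposure 15 min at 22 °C before imaging.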

CGGGTGTGAG
switch fluorescence ratio: 1.006 ± 0.0055

CGAGCAGTGG
switch fluorescence ratio: 1.1 ± 0.034

TGGGGTGACA
switch fluorescence ratio: 1.01 ± 0.054

TTGGTCGGTC
switch fluorescence ratio: 0.985 ± 0.036

GAAGGAGGGT
switch fluorescence ratio: 0.9731 ± 0.0064

TGTGAGGCGT
switch fluorescence ratio: 0.993 ± 0.0036

ATCGATTGT
switch fluorescence ratio: 0.973 ± 0.028

ACCTGCATGG
switch fluorescence ratio: 1.05 ± 0.11

TGGCCGGGTT
switch fluorescence ratio: 1.33 ± 0.4

TTTGGAGGAG
switch fluorescence ratio: 0.997 ± 0.048

AAGGAAAACG
switch fluorescence ratio: 0.969 ± 0.021

ATTGGGAGGG
switch fluorescence ratio: 1.022 ± 0.0026

TAAGTAGTTT
switch fluorescence ratio: 1.02 ± 0.013

CGTGAGAAGT
switch fluorescence ratio: 0.9923 ± 0.0041

GCTCATGAGC
switch fluorescence ratio: 1.007 ± 0.0093

TTGTAAGTGG
switch fluorescence ratio: 0.97 ± 0.0078

GGGTAGAGGA
switch fluorescence ratio: 0.99 ± 0.03

TCTTAGCGCG
switch fluorescence ratio: 1.07 ± 0.041

GAGTTGTGGG
switch fluorescence ratio: 0.993 ± 0.014

GAGAGGGGAA
switch fluorescence ratio: 1.01 ± 0.009

TGGCGGGGTC
switch fluorescence ratio: 0.9992 ± 0.0094

ATAGAGAGGT
switch fluorescence ratio: 1.01 ± 0.012

CGGGGGCTGG
switch fluorescence ratio: 0.989 ± 0.059

GGGGTCGACG
switch fluorescence ratio: 1.033 ± 0.0092

GCTGTAAGTA
switch fluorescence ratio: 0.988 ± 0.017

GATGGTTATC
switch fluorescence ratio: 0.961 ± 0.026

AATTGTAAGA
switch fluorescence ratio: 0.992 ± 0.025

TGAGGTGGTG
switch fluorescence ratio: 1.01 ± 0.0074

AGTTAGGGGT
switch fluorescence ratio: 0.987 ± 0.02

TGTTTTAACT
switch fluorescence ratio: 1.01 ± 0.017

CTGGGAAGTG
switch fluorescence ratio: 0.978 ± 0.003

AAGCGGTTG
switch fluorescence ratio: 1.005 ± 0.006

TTAATAGATG
switch fluorescence ratio: 1 ± 0.029

GGGAGTTAAA
switch fluorescence ratio: 0.972 ± 0.013

GGAGGTAATT
switch fluorescence ratio: 0.981 ± 0.027

TATAGATAAG
switch fluorescence ratio: 1.01 ± 0.015

CGTATAGGAT
switch fluorescence ratio: 1.01 ± 0.036

CGACGTTCGC
switch fluorescence ratio: 1.48 ± 0.037

CTTGTTGATT
switch fluorescence ratio: 1.009 ± 0.0056

AGAACGAAGG
switch fluorescence ratio: 0.962 ± 0.015

GTGTGGTTTT
switch fluorescence ratio: 1.03 ± 0.015

AGGAGGTTGG
switch fluorescence ratio: 0.998 ± 0.017

TAACGTGAGT
switch fluorescence ratio: 0.988 ± 0.016

CGTCTTAAAG
switch fluorescence ratio: 1 ± 0.036

TTATACACAT
switch fluorescence ratio: 1.06 ± 0.023

GGGTCTTGGG
switch fluorescence ratio: 0.9482 ± 0.008

TCCTGGGTTG
switch fluorescence ratio: 0.99 ± 0.066

GCAAAAGGTT
switch fluorescence ratio: 1.01 ± 0.022

TGTGTAAGGT
switch fluorescence ratio: 1.02 ± 0.025

TCAGCATGCG
switch fluorescence ratio: 0.933 ± 0.025

CGGGGAAAGA
switch fluorescence ratio: 0.978 ± 0.03

AAAATCGACC
switch fluorescence ratio: 1.08 ± 0.011

GGTTTATGAC
switch fluorescence ratio: 1.13 ± 0.27

CACGCGGGGA
switch fluorescence ratio: 1.01 ± 0.041

CCTTTGCCCG
switch fluorescence ratio: 1.07 ± 0.17

AAGGACTGAA
switch fluorescence ratio: 0.9994 ± 0.0078

TAGGGAGGGC
switch fluorescence ratio: 1.03 ± 0.041

TTTTCTATTT
switch fluorescence ratio: 0.998 ± 0.018

TAATCTTGGG
switch fluorescence ratio: 1 ± 0.011

TACGGAAATG
switch fluorescence ratio: 1.0398 ± 0.00093

CGTGGATGTT
switch fluorescence ratio: 0.9831 ± 0.0034

ATCGACATTA
switch fluorescence ratio: 1.01 ± 0.017

CCAGGCATGT
switch fluorescence ratio: 1.05 ± 0.012

GGTACAGGGC
switch fluorescence ratio: 1.065 ± 0.0073

GGACTAGTTA
switch fluorescence ratio: 0.99 ± 0.021

TCACTTTGTG
switch fluorescence ratio: 1.01 ± 0.043

CTTGAGCAGG
switch fluorescence ratio: 1.2 ± 0.038

TTTTTTAGGC
switch fluorescence ratio: 0.962 ± 0.041

GAAAAAAAAG
switch fluorescence ratio: 1.07 ± 0.1

GCGTTCGGGC
switch fluorescence ratio: 1 ± 0.029

ACAGGTACAT
switch fluorescence ratio: 1.12 ± 0.034

TGGTACGGTT
switch fluorescence ratio: 0.975 ± 0.015

TTATAATTTT
switch fluorescence ratio: 0.965 ± 0.044

TTGTGATAGT
switch fluorescence ratio: 1.0025 ± 0.00064

GGGGATTCAT
switch fluorescence ratio: 0.986 ± 0.012

TAAAGGGTTG
switch fluorescence ratio: 1.02 ± 0.065

GGTTTTGGGG
switch fluorescence ratio: 1.01 ± 0.026

TTTGAACTTT
switch fluorescence ratio: 0.991 ± 0.033

CACGGGTTCC
switch fluorescence ratio: 1.03 ± 0.041

AGCGTTCTTA
switch fluorescence ratio: 1.02 ± 0.041

AGGCGTTGAG
switch fluorescence ratio: 0.976 ± 0.018

TTGGTAGGGC
switch fluorescence ratio: 0.97013 ± 0.0006

CTCGGGATCA
switch fluorescence ratio: 1.011 ± 0.0028

TTTTATGGTG
switch fluorescence ratio: 0.994 ± 0.019

CGTGGGGGCA
switch fluorescence ratio: 0.9538 ± 0.0076

CAGTGGTCGG
switch fluorescence ratio: 1 ± 0.038

GGGTTACTGT
switch fluorescence ratio: 0.985 ± 0.012

AGGTGTCGCG
switch fluorescence ratio: 1.01 ± 0.02

TAACATGTTC
switch fluorescence ratio: 0.995 ± 0.031

AGAGGGAGTA
switch fluorescence ratio: 1 ± 0.022

TTAAGTGAGG
switch fluorescence ratio: 1.02 ± 0.016

GCAGGAATGG
switch fluorescence ratio: 1.113 ± 0.0098

AATTAGACGA
switch fluorescence ratio: 0.958 ± 0.034

GCACGGGGCG
switch fluorescence ratio: 1.03 ± 0.034

GGATGGGGAG
switch fluorescence ratio: 0.971 ± 0.02

TGAGGTATG
switch fluorescence ratio: 0.971 ± 0.046

CAGAGGCGTG
switch fluorescence ratio: 0.9831 ± 0.0079

TCCAGGGTAC
switch fluorescence ratio: 1.23 ± 0.18

AAGAGGCGGA
switch fluorescence ratio: 1 ± 0.026

GCAAGTCTGA
switch fluorescence ratio: 1.03 ± 0.019

— the supplement of paper PMC10126150
